# According to patent US20250276077A1 (IMMUNOME, published 2025):
# Residue numbers refer to the chain shown, from its start.
# B1: AB-010693 (antibody, V domains shown)
# VH: QVQLQQWGAGLLKPSETLSLTCAVYGGSFSGYYWSWIRQPPGKGLEWIGEINHRGSINYNNYNPSLKSRVTISVDTSKNQFSLKLSSVTAADTAVYYCAKPLRPHCINGVCYSGDAFDIWGQGTMVTVAS
# VL: SYVLTQPPSVSVAPGQTARITCGGNNIGYKNVHWYQQKPGQAPVLVVYDDSDRPSGIPERFSGSNSGNTATLTISRVEAGDEADYYCQVWDSSSDHVVFGGGTKLTVL
# B2: AB-010694 (antibody, V domains shown)
# VH: B1 VH with I107T
# VL: B1 VL with K30M
# B3: AB-010695 (antibody, V domains shown)
# VH: B1 VH with I107T
# VL: B1 VL with S92H
# B4: AB-010696 (antibody, V domains shown)
# VH: B1 VH
# VL: B1 VL with Y29S, K30M
# B5: AB-010697 (antibody, V domains shown)
# VH: B1 VH with I107T
# VL: B1 VL with Y29S, K30M, S92H
# B6: AB-010698 (antibody, V domains shown)
# VH: B1 VH
# VL: B1 VL with Y29S, S92H
# B7: AB-010700 (antibody, V domains shown)
# VH: B1 VH with I107T
# VL: B1 VL with Y29S, S93R
# B8: AB-010701 (antibody, V domains shown)
# VH: B1 VH with I107T
# VL: B1 VL with Y29S, S93E
# B9: AB-010702 (antibody, V domains shown)
# VH: B1 VH with I107T
# VL: B1 VL with S93E
# B10: AB-010661 (antibody, V domains shown)
# VH: B1 VH with G31D
# VL: B1 VL with G23R, Y29S, R60Q
# B11: AB-010662 (antibody, V domains shown)
# VH: B1 VH with G31D, I107T
# VL: B1 VL with G23R, R60Q
# B12: AB-010663 (antibody, V domains shown)
# VH: B1 VH with G31D, I107T
# VL: B1 VL with G23R, Y29S, K30M, R60Q
# B13: AB-010664 (antibody, V domains shown)
# VH: B1 VH with G31D, I107T
# VL: B1 VL with G23R, Y29S, R60Q, S92H
# B14: AB-010665 (antibody, V domains shown)
# VH: B1 VH with G31D
# VL: B1 VL with R60Q
# B15: AB-010666 (antibody, V domains shown)
# VH: B1 VH with G31D, I107T
# VL: B1 VL with K30M, R60Q
# B16: AB-010667 (antibody, V domains shown)
# VH: B1 VH with G31D, I107T
# VL: B1 VL with R60Q, S92H
# B17: AB-010668 (antibody, V domains shown)
# VH: B1 VH with G31D
# VL: B1 VL with Y29S, K30M, R60Q
# B18: AB-010669 (antibody, V domains shown)
# VH: B1 VH with G31D, I107T
# VL: B1 VL with Y29S, K30M, R60Q, S92H
# B19: AB-010670 (antibody, V domains shown)
# VH: B1 VH with G31D
# VL: B1 VL with Y29S, R60Q, S92H
# B20: AB-010671 (antibody, V domains shown)
# VH: B1 VH with G31D
# VL: B1 VL with R60Q, S92H
# B21: AB-010672 (antibody, V domains shown)
# VH: B1 VH with G31D, I107T
# VL: B1 VL with Y29S, R60Q, S93R
# B22: AB-010673 (antibody, V domains shown)
# VH: B1 VH with G31D, I107T
# VL: B1 VL with Y29S, R60Q, S93E
# B23: AB-010674 (antibody, V domains shown)
# VH: B1 VH with G31D, I107T
# VL: B1 VL with R60Q, S93E
# B24: AB-010675 (antibody, V domains shown)
# VH: B1 VH
# VL: B1 VL with G23R, Y29S, R60Q
# B25: AB-010676 (antibody, V domains shown)
# VH: B1 VH with I107T
# VL: B1 VL with G23R, R60Q
# B26: AB-010677 (antibody, V domains shown)
# VH: B1 VH with I107T
# VL: B1 VL with G23R, Y29S, K30M, R60Q
# B27: AB-010678 (antibody, V domains shown)
# VH: B1 VH with I107T
# VL: B1 VL with G23R, Y29S, R60Q, S92H
# B28: AB-010679 (antibody, V domains shown)
# VH: B1 VH
# VL: B1 VL with R60Q
# B29: AB-010680 (antibody, V domains shown)
# VH: B1 VH with I107T
# VL: B1 VL with K30M, R60Q
# B30: AB-010681 (antibody, V domains shown)
# VH: B1 VH with I107T
# VL: B1 VL with R60Q, S92H
# B31: AB-010682 (antibody, V domains shown)
# VH: B1 VH
# VL: B1 VL with Y29S, K30M, R60Q
# Target: Human EphA2 (ephrin receptor A2) on cells (human, UniProt P29317 25-976)
# Experiment: cell-based or functional assay
# Human EphA2 (ephrin receptor A2) on cells, sequence (P29317 25-976): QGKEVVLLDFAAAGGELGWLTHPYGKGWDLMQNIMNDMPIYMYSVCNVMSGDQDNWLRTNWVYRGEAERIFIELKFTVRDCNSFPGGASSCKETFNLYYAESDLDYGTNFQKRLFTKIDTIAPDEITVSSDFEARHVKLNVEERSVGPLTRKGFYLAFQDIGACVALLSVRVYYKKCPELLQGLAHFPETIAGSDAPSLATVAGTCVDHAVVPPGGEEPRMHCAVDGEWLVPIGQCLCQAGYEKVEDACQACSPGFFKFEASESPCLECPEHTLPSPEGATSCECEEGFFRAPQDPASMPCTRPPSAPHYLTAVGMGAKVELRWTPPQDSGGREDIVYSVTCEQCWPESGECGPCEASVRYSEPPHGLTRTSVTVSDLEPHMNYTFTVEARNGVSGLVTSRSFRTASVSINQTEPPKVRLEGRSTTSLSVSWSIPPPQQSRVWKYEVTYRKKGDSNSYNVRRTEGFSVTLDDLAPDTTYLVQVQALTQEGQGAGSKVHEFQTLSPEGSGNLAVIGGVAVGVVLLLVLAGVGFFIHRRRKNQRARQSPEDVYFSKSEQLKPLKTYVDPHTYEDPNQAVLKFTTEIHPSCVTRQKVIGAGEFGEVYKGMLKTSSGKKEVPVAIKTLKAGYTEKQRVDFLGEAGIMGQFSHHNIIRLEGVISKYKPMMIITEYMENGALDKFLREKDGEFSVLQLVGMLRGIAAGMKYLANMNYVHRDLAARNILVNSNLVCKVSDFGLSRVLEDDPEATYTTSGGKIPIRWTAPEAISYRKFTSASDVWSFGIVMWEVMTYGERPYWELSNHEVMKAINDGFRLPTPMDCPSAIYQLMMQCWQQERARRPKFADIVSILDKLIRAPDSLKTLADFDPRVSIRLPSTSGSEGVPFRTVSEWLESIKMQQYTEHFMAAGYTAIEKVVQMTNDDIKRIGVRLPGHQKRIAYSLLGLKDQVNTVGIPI
Binder,"ADCC - EC50 (nM), Trial 1, A549 [nM]","ADCC - EC50 (nM), Trial 2, A549 [nM]"
B1,0.15,
B2,0.14,
B3,~0.021,0.0096
B4,1.9,
B5,0.3,
B6,0.23,
B7,9.5,
B8,3,
B9,0.065,
B10,5.7,
B11,0.57,
B12,4.7,
B13,0.54,
B14,~0.23,0.14
B15,~0.19,0.16
B16,< 0.03,0.012

Binder,"ADCC - EC50 (nM), Trial 1, A549 [nM]","ADCC - EC50 (nM), Trial 2, A549 [nM]"
B17,3.7,
B18,0.44,
B19,0.36,
B20,< 0.03,0.0064
B21,12.4,
B22,3.9,
B23,~0.13,0.1
B24,1.5,
B25,~0.1,0.039
B26,1.6,
B27,~0.14,0.047
B28,~0.15,0.04
B29,~0.081,0.031
B30,< 0.03,0.0079
B31,3.2,
